B1: Cytochrome b5, P00171 (parent)
chain: MAEESSKAVKYYTLEEIQKHNNSKSTWLILHYKVYDLTKFLEEHPGGEEVLREQAGGDATENFEDVGHSTDARELSKTFIIGELHPDDRSKITKPSESIITTIDSNPSWWTNWLIPAISALFVALIYHLYTSEN

The data set covers variants of B1. The conditions noted are these: Bos taurus, pH 7, 25 °C, CD, MOPS 30 mM, reversible: yes (partial), structure 1CYO, whole UniProt chain shown.

With MAEESSKAVKYYTLEEIQKHNNSKSTWLILHYKVYDLTKFLEEHPGGEEVLREQAGGDATENFEDVGHSTDARELLKTFIIGELHPDDRSKITKPSESIITTIDSNPSWWTNWLIPAISALFVALIYHLYTSEN, where the note is “GdnHCl”, the “ddG of mutation (higher = less stable)” value was -0.8 kcal/mol, the “denaturant midpoint (higher = more stable)” value was determined as 2.3 M and the unfolding free energy was found to be 3.8 kcal/mol. For the same variant, the “denaturant midpoint (higher = more stable)” value (GdnSCN) amounted to 1.59 M.
On the same counts, the results for MAEESSKAVKYYTLEEIQKHNNSKSTWLILHYKVYDITKFLEEHPGGEEVLREQAGGDATENFEDVGHSTDARELLKTFIIGELHPDDRSKITKPSESIITTIDSNPSWWTNWLIPAISALFVALIYHLYTSEN are -0.5 kcal/mol, 1.9 M, 3.5 kcal/mol and 1.8 M.

The record behind these values is FireProtDB (doi:10.1093/protein/gzi067).
